Reference: patent US20250269025A1 (AVENCELL THERAPEUTICS, published 2025)
No end group written: not given here.

Legend:
[1] = target: T1, CD123 on CD123 positive AML cells (Oci-AML3, Molm-13, MV4-11, primary AML cells) (human, UniProt P26951 19-378); assay: flow cytometry on Oci-AML3 cells, anti-His-PE detection. Half-maximal binding from a four-parameter fit of gMFI. Unit taken from the concentration axis [M]. The curve has no upper plateau in the range shown
T1 construct: whole, on cells; Endogenous CD123 on human AML cell lines; also called target antigen CD123
Method: Cellular binding of CD123-binding targeting modules (TM) was tested on CD123 positive target cell lines Oci-AML3 and Molm-13: A) SEQ ID No. 5 to Oci-AML3, B) SEQ ID No. 9 to Oci-AML3, C) SEQ ID No. 4 to Molm-13 and D) SEQ ID No. 6 to Molm-13. The affinity of TMs was analyzed by flow cytometry. The TMs were titrated on an AML cell lines and then detected by a mouse anti-His-tag antibody conjugated to phycoerythrin.
Different concentrations of R-TM123 were incubated with cells, washed and quantified. A dose-response curve was obtained when the geometric mean fluorescence (MFI) was plotted against the TM concentration.

[2] = target: T2, human CD123-Fc (human, UniProt P26951 19-305, limits assumed); assay: SPR, Biacore X100, human CD123-Fc on CM5 chip, 1:1 model
T2 construct: Coupled to a CM5 sensor chip; also called soluble recombinant CD123; not shown: Fc part
T2 sequence (looked up): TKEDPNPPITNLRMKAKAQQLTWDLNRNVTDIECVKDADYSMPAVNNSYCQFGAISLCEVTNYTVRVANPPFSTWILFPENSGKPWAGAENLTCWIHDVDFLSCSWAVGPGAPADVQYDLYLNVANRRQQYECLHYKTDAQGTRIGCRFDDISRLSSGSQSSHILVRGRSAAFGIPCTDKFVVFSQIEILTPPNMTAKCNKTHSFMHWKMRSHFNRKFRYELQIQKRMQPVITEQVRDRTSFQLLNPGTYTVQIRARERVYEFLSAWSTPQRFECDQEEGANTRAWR
Method: (§1) Binding of different variants of the targeting module according to the invention was analyzed by SPR measurements using human CD123-Fc coupled to a CM5 sensor chip on a Biacore X100 device (FIG. 2). Targeting modules were purified monomer except for the targeting module according to SEQ ID No. 8. […] For data fitting and KD calculation a 1:1 binding model was applied.

[3] = target: T2, human CD123-Fc; assay: SPR, Biacore X100, human CD123-Fc on CM5 chip, 1:1 model; TM not purified monomer
Method: as §1

[4] = target: T1, CD123 on CD123 positive AML cells …; assay: cellular binding assay per table caption, Oci-AML3 cells; Oci-AML3 cells
[5] = target: T3, La epitope 5B9 (SEQ ID No. 28) fused to human Fc domain (human, also: fused to human Fc domain, order, isotype, linker not given here); assay: SPR, Biacore X100, La epitope 5B9-human Fc on CM5 chip
T3 construct: Coupled to a CM5 sensor chip; not shown: human Fc domain
T3 chain: KPLPEVTDEY
Method: Furthermore, binding of different variants of the targeting module according to the invention was analyzed using the La epitope 5B9 (SEQ ID No. 28) fused to human Fc domain which was coupled to a CM5 sensor chip on a Biacore X100 device (FIG. 3). The targeting modules were purified monomers. The targeting modules were concentrated between 2.47 to 200 nM and measured in technical duplicates. For data fitting and KD calculation a two-state-reaction binding model was applied.

B1: targeting module according to SEQ ID No. 9 (bispecific antibody)
chain: EVQLVQSGAEVKKPGASVKMSCKASGYTFTDYYMKWVKQAPGQGLEWIGDIIPSNGATFYNQKFKGRATLTVDRSTSTAYMELSSLRSEDTAVYYCTRSHLLRASWFAYWGQGTLVTVSSASGGGGSGGGGSGGGGSDFVMTQSPDSLAVSLGERATINCESSQSLLNTGNQKNYLTWYLQKPGQPPKLLIYWASTRESGVPDRFSGSGSGTDFTLTISSVQAEDVAVYYCQNDYSYPYTFGGGTKLEIKAAARGDIVMTQSPDSLAVSLGERATINCKSSQSLLNSRTPKNYLAWYQQKPGQPPKLLIYWASTRKSGVPDRFSGSGSGTDFTLTISSLQAEDVAVYYCKQSYNLLTFGGGTKVEIKGGGGSGGGGSGASAAGGGGSGGGGSQVQLVQSGAEVKKPGASVKVSCKASGYTFTHYYIYWVRQAPGQGLEWMGGVNPSNGGTHFNEKFKSRVTMTRDTSISTAYMELSRLRSDDTAVYYCARSEYDYGLGFAYWGQGTLVTVSSGGGGSHHHHHHHH
notes: also called huCD123_4 + 5B9-VLVH
Binder B1 has a Kd [1] of 6.77 nM and a Kd [2] of 0.162 nM.

B2: targeting module according to SEQ ID No. 8 (bispecific antibody)
chain: GQVQLVQSGAEVKKPGASVKMSCKASGYTFTDYYMKWVKQAPGQGLEWIGDIIPSNGATFYNQKFKGRATLTVDKSTSTAYMELSSLRSEDTAVYYCTRSHLLRASWFAYWGQGTLVTVSSASGGGGSGGGGSGGGGSDFVMTQSPDSLAVSLGERATMNCKSSQSLLNSGNQKNYLTWYLQKPGQPPKLLIYWASTRESGVPDRFSGSGSGTDFTLTISSVQAEDVAVYYCQNDYSYPYTFGGGTKLEIKAAARGDIVMTQSPDSLAVSLGERATINCKSSQSLLNSRTPKNYLAWYQQKPGQPPKLLIYWASTRKSGVPDRFSGSGSGTDFTLTISSLQAEDVAVYYCKQSYNLLTFGGGTKVEIKGGGGSGGGGSGASAAGGGGSGGGGSQVQLVQSGAEVKKPGASVKVSCKASGYTFTHYYIYWVRQAPGQGLEWMGGVNPSNGGTHFNEKFKSRVTMTRDTSISTAYMELSRLRSDDTAVYYCARSEYDYGLGFAYWGQGTLVTVSSGGGGSHHHHHHHH
notes: also called huCD123_3 + 5B9-VLVH
B2 gave a Kd [3] of 0.131 nM.

B3: targeting module according to SEQ ID No. 3 (bispecific antibody)
chain: GQVQLVQSGAEVKKPGSSVKVSCKASGYTFTDYYIHWVRQAPGQGLEWMGDIIPSNGATFYNQRFKGRVTITADESTSTAYMELSSLRSEDTAVYYCTRSHLLRASWFAYWGQGTLVTVSSASGGGGSGGGGSGGGGSDIVMTQTPLSLSVTPGQPASISCRSSQSLLNSGNQKNYLTWYLQKPGQSPQLLIYWASTRFIGVPDRFSGSGSGTDFTLKISRVEAEDVGVYYCQNDYSYPYTFGQGTKLEIKAAARGDIVMTQSPDSLAVSLGERATINCKSSQSLLNSRTPKNYLAWYQQKPGQPPKLLIYWASTRKSGVPDRFSGSGSGTDFTLTISSLQAEDVAVYYCKQSYNLLTFGGGTKVEIKGGGGSGGGGSGASAAGGGGSGGGGSQVQLVQSGAEVKKPGASVKVSCKASGYTFTHYYIYWVRQAPGQGLEWMGGVNPSNGGTHFNEKFKSRVTMTRDTSISTAYMELSRLRSDDTAVYYCARSEYDYGLGFAYWGQGTLVTVSSGGGGSHHHHHHHH
notes: also called huCD123_1 + 5B9-VL-VH
In the case of B3, the EC50 [4] is reported as 23 nM and the Kd [5] is reported as 2 nM.
